Source: the DeepSol protein solubility set

Assay: soluble on expression in E. coli; label from the status in PepcDB or PDB records

In the case of “MGSDKIHHHHHHMTSYVLTVSCPSKRGIVAALSGYLAEMGCNIVDSSQFDDLDTDRFFMRVSFISEQGASREKIEAGLAPIVDNFQMEIGLYDSTERVKVLLMVSRFGHCLNDLLYRWKIGALPIDIVGVVSNHFDYQKVVVNHDIPFHHIKVTKDNKPQAEAQLMELVQQTGTELIVLARYMQVLSDAMCQKMSGKIINIHHSFLPSFKGANPYKQAFERGVKLIGATAHYVTADLDEGPIIEQDVARVTHAQNAEDYVSIGRDVESQVLARAIHAHIHHRTFINGNKSVVFPASPGSYASERMG”, the “soluble on expression in E. coli” value is reported as “not soluble”.
In the case of “MGLFLEDLAVGDRFDSARHRVEAAAIKAFAGEFDPQPFHLDEEAARHSLFGGLAASGWHTAAITMRLLVTSGLPLAQGIIGAGTELSWPNPTRPGDELHVETTVLAITPSKSRPDRAIVTCQSDTLNQRGEVVQRSTAKVVVFRRPLEHHHHHH”, the “soluble on expression in E. coli” value is reported as “soluble”.
For “MAKATYACVECGYRTPKPLGRCPSCGSWESFQEVAPAPASRRAKPSPLPLLALSQVDEAEERRFSSGLSEVDRVLGGGFVTGEVVLLGGEPGVGKSTLLLEMAKRMPQRVYYVAGEESPAQIKLRAQRLGVKDLLLVRETRLEPLLALLEEDPPEVLFVDSVQTLEAGGSPGSLVAVREATSALVRFAKESGAAVVLVGHVTKEGVVAGPKSVEHAVDATLYLETAGPYRVLRSAKNRFGPVGEIGVFRMEEAGLLEVENPSEAFLKERPLGVPGSAVALALAGERALALEVQALAAKTPFPAPRRVVQGLDSRRVDVVLAVLERRLGLPLANLDIYVNLAGGLKVQDPGLDLAVALAVYSAVVGRPLPADLALVGEVGLAGEVRRVAGLERRLREGERAGFGRFLHPGNLKRLQEAVEAYLALEHHHHHH”, the “soluble on expression in E. coli” value was “not soluble”.
In the case of “MLIAIEGVDGAGKRTLVEKLSGAFRAAGRSVATLAFPRYGQSVAADIAAEALHGEHGDLASSVYAMATLFALDRAGAVHTIQGLCRGYDVVILDRYVASNAAYSAARLHENAAGKAAAWVQRIEFARLGLPKPDWQVLLAVSAELAGERSRGRAQRDPGRARDNYERDAELQQRTGAVYAELAAQGWGGRWLVVGADVDPGRLAATLAPPDVPS”, the “soluble on expression in E. coli” value is reported as “soluble”.
For “MGSDKIHHHHHHMRDLNRLDDLLQGYEFMKKINDNWEIIENGLNLSDYEIEHLRKRITNLVIASGGNSSNEVVDLRVSKLQNKIFELAKDRLDSDLDSLADSLKNMMTRITSIELTNEQVLYMLNRLYGLDAGSIEVYVDSVSGDDTAGTGEKNKPFKTINKATMNFPRVFNSNTLRLWINPGRYDEDVIIPPLSGVTLYILSSNYETVDPAAGPTTCQIRSISVSDTSGYIYIAGIEQTNTAGTTKNYFIKAIRCGFVRITKCRMAFNTKAIDPFTAVFIDACSADVNGCYFASQNVDVRGYNTARVEVQNTTHGAKSAIGLYPQSADIFNLNSGTWEADTPTKLSGGGVVRT”, the “soluble on expression in E. coli” value was “not soluble”.
In the case of “MGSDKIHHHHHHMMIHGFQSSHQDFSFGPWKLTASKTHIMKSADVEKLADELHMPSLPEMMFGDNVLRIQHGSGFGIEFNATDALRCVNNYQGMLKVACAEEWQESRTEGEHSKEVIKPYDWTYTTDYKGTLLGESLKLKVVPTTDHIDTEKLKAREQIKFFEEVLLFEDELHDHGVSSLSVKIRVMPSSFFLLLRFFLRIDGVLIRMNDTRLYHEADKTYMLREYTSRESKIANLMHVPPSLFTEPNEISQYLPIKEAVCEKLVFPERIDPNPVDSQSTPSE”, the “soluble on expression in E. coli” value is reported as “not soluble”.
For “MSLRKVIGIGETILDIIFRNDQPSAAVPGGSVFNGIVSLGRMGVNVCFISETGNDHVGNIILQFMRDNHIPTDHVNVFPDGKSPVSLAFLNEHSDAEYIFYKDYPKQRLDVLFPSINEDDIIVIGSYYALNPVLRDKILELLDIAKEKRAIVYYDPNFRSSHKNEAMKLAPTIIENLEYADIVRGSLEDFYYMYGIKDVEKIYKDKIKFYCPLFLCTAGAERISLRTNAISKEYPVAPLEAVSTIGAGDNFNAGLIYGMLKYDVRYRDLQHLSEETWDKVIQCGQDFAAEVCKSFNNSISGEFAANYREGHHHHHH”, the “soluble on expression in E. coli” value was “soluble”.
With “MGSDKIHHHHHHMSLDRVDWPHATFSTPVKRIFDTQTTLDFQSSLAIHRIKYHLHKYTTLISHCSDPDPHATASSIAMVNGLMGVLDKLAHLIDETPPLPGPRRYGNLACREWHHKLDERLPQWLQEMLPSEYHEVVPELQYYLGNSFGSSTRLDYGTGHELSFMATVAALDMLGMFPHMRGADVFLLFNKYYTIMRRLILTYTLEPAGSHGVWGLDDHFHLVYILGSSQWQLLDAQAPLQPREILDKSLVREYKDTNFYCQGINFINEVKMGPFEEHSPILYDIAVTVPRWSKVCKGLLKMYSVEVLKKFPVVQHFWFGTGFFPWVNIQNGTDLPVFEEKEEESIEQANAGSPGREQTSTRFPTSTSMPPPGVPPSGNNINYLLSHQNQSHRNQTSFSRDRLRR” the “soluble on expression in E. coli” value was “not soluble”.
For “MGSDKIHHHHHHMVARRRLDAELVRRKIARSREHAVEMIRGRRVFVAGMLALKPATVVEPEVSIRVEEDASEDWASRGAHKLLGALESFEPLGLKVKGRRVLDAGASTGGFTDVLLRREASEVVAVDVGYGQLIWRLQNDDRVRVVDRTNIRYMTLEDTGGECDMMVGDLSFISLKLTLPAIAKVLSDGADLLPMVKPQFEVGKDRLGSGGVVRSPELRAEVTADVAKFAATLGLSLKHVVASPLPGPSGNVEYFLWLVKDGGASMPDDQQLSAMIDTAVKEGPQ”, the “soluble on expression in E. coli” value was “not soluble”.
In the case of MQKHFDCVLKHLLSRCCARRRESSFRPAPAGKVFLD, the “soluble on expression in E. coli” value is reported as “not soluble”.
For “MTKGKGRNPGASGLDKHLKRKTHLERSQPKSRQHLGQLEKHKDHVLRAKKRKVKVRRLQEIKRAAAQRNPDEFNIGMTKAVMDVANGRMRQRRVRLVESDRKKDMQTTIEHNRRNVQYLEFKAQADQQRATELLNEEAAAALTSTAPQNKHIVFVNSEEEFRSFNPLKHFDVTPEMMRQHPAVRGRIRVLEKTVMPEEILMSGGHQIKSAAQKRKERREVQEKMRRSGADATPETRAAFVERLRAKKELKQYQFTDLLEEVKRESEATASSSKGAPGDDGEQEEAAAQDEVTRLLEWRREQERQAAIATARHVREVGQRIQRSKSLSALAKSIRKQSQGIKRQMEQRRESRFKPGATRRAR”, the “soluble on expression in E. coli” value was “not soluble”.
With “MRPQIMPFYIEMGKGDGGITGEDILQNWMLKSNLKNVEILEELPLRPTKLVVAISEEIYPDVYTIEDFKEKVGDREVFIASEFPEIARKYAEKHGLNAIVFDPIGKTEAALLPPMPEADLIIEITEFGTTLKENMCRIIDLVMDKVHSVFIVNKESLKDEEKKQVMENLVTDLKEVIESRNLVSFYFNVPNEDDLRRIIDYLTENGFDPTISPLAKGGAAVHIIVDRSRVKFLKPIIRGMGAKRIATSPVITSGTNRAAQQKPFYLLSGIQREFPSASPFF” the “soluble on expression in E. coli” value was “not soluble”.
In the case of “MSLGRLEKRFSFAFCSYWRPFRRPLRTHHGLWSVREGILIRLTDRETGCQGYGEIAPIPWFGSETLEQALAFCRQLPPLLSEAYILGIPEALPACRFGLEGAWLACRDPDWLNKDLSLLSFCELLGETLPPESYKDSYKDSVPLTRSVYKLKVGRDPMQQELEKLEQWLERLPPGSRLRLDANGGLSLAEAHRWLMVCDRLNQDSPGKIEFLEQPLPPDQHSHLVELSRQYQTPIALDESVACLEQLQAVHRSGWTGILVVKPSLVGSCIALREYLSRHPGLDLVFSSALETAIGAWHGLAWAGSLQAKTASPRAVGWGVGEFFQEGDPLTLTQLSAQERAALMQAVWERYSREGHHHHHH”, the “soluble on expression in E. coli” value is reported as “soluble”.
For “SHSKLRIKKEIEPIVSALTFLSQGQSAALNEKGNFSEIKTALNETSHILEESNMMKEQWIRGVSHDLRNPLMLISGYTSQLEQQYGHGKQTEQIENQIQNMKEMISNLNLSYLLDNQKRHSKFSSLDLAVVLRSVIADILNNYETVILHFDLPTEAVLVKGDATLLERAFRNLLLNSIKHSGSNQIDLTYQLFDNKVIIIIADKGTITAQKIVELNQKSTNYESHGMGTVITKQIIKLHQGETVFSDNHPGLKVTIVLPVTDEF”, the “soluble on expression in E. coli” value was “not soluble”.
For “MPNRHGSPRSSTRWAGLAIIALACLLSACSSTPTRSLTSRDTSGQRTHGAAINDPSAGLEEISIEAMALVGTPYRYGGNTPDSGFDCSGLVRYVVQRAASVNLPRTAAEMGTRGFALERRDVASGDLVFFNTTGRPNSHVGIYVGQNRFVHAPATGGTVRLEDMSKRYWASRYMGARRVVAVSNLPDLPASPAAATQSIAAGAAAPATAPAHANDDDPLGTLARARGTESSPLMSTRNAAPVVVPPADDDPIARFATQ”, the “soluble on expression in E. coli” value was “soluble”.
With “MMRGSHHHHHTDPISYIIRKADSVNKALDSAVPLREPLKIHEAMRYSLLAGGKRVRPVLCIAACELVGGEESLAMPAACAVEMIHTMSLIHDDVYGEDVAVLAGDALLSFAFEHLASATSSEVSPARVVRAVGELAKAIGTEGLVAGQVVDISNVGLEHLKFIHLHKTAALLEASAVLGGIIGGGSDEEIERLRKFARCIGLLFQVVDDILDVTIADKLTYPKLMGLEKSREFAEKLNTEARDQLLGFDSDKVAPLLALANYIANRQN” the “soluble on expression in E. coli” value was “soluble”.
For “MPGTKRFQHVIETPEPGKWELSGYEAAVPITEKSNPLTQDLDKADAENIVRLLGQCDAEIFQEEGQALSTYQRLYSESILTTMVQVAGKVQEVLKEPDGGLVVLSGGGTSGRMAFLMSVSFNQLMKGLGQKPLYTYLIAGGDRSVVASREGTEDSALHGIEELKKVAAGKKRVIVIGISVGLSAPFVAGQMDCCMNNTAVFLPVLVGFNPVSMARNDPIEDWSSTFRQVAERMQKMQEKQKAFVLNPAIGPEGLSGSSRMKGGSATKILLETLLLAAHKTVDQGIAASQRCLLEILRTFERAHQVTYSQSPKIATLMKSVSTSLEKKGHVYLVGWQTLGIIAIMDGVECIHTFGADFRDVRGFLIGDHSDMFNQKAELTNQGPQFTFSQEDFLTSILPSLTEIDTVVFIFTLDDNLTEVQTIVEQVKEKTNHIQALAHSTVGQTLPIPLKKLFPSIISITWPLLFFEYEGNFIQKFQRELSTKWVLNTVSTGAHVLLGKILQNHMLDLRISNSKLFWRALAMLQRFSGQSKARCIESLLRAIHFPQPLSDDIRAAPISCHVQVAHEKEQVIPIALLSLLFRCSITEAQAHLAAAPSVCEAVRSALAGPGQKRTADPLEILEPDVQ”, the “soluble on expression in E. coli” value was “soluble”.
For “MGSDKIHHHHHHMMKRFWFFLESYVFVWTNHEAVLLYDSLSGKGVTWKLTDPVRTIVMELMKKENLYCMELTEDDLNVPEVTEFVSEIRRNFIGDLYSQEEFRQKPLVIVPEVSVNENLENDVETMNNLELFGQKIVNNLRVVTMRLTGECSINCRYCQTVDKQIVWCRKQDNRLSYNEICRLLEQLKHTPVTLINFVGGNVLSYPFLDELLNELKKHSFGKCFYLYYKQSVDYEQIRAKLLNDPSVSIKFLIDYPVNEYAISACVALPNERVEYCFAVTSEEEFQEVSRIIDVYKLKANIYPFYTIDNLDFFEKYVFQTLEDVMALCRTKKDIFAHQLVNTHFFGTLYIDCDGKVYPNFNSKSIGTIDGYVKDWVFQEMKQGKMWHWTRDSLPACKECLYKYLCPSPSNYELVIGKPNLCHVKPWKC”, the “soluble on expression in E. coli” value was “not soluble”.
With “MLELYHRKKLFNLLKAPLKKKPFFFIYNTKQTYRDKTPMRNIDFSKLHLSEDVRANEKVHNKRNLFMSNKIIHYLPPKRHD” the “soluble on expression in E. coli” value was “not soluble”.
In the case of “MGSDKIHHHHHHMTIYTLSHGSLKLDVSDQGGVIEGFWRDTTPLLRPGKKSGVATDASCFPLVPFANRVSGNRFVWQGREYQLQPNVEWDAHYLHGDGWLGEWQCVSHSDDSLCLVYEHRSGVYHYRVSQAFHLTADTLTVTLSVTNQGAETLPFGTGWHPYFPLSPQTRIQAQASGYWLEREQWLAGEFCEQLPQELDFNQPAPLPRQWVNNGFAGWNGQARIEQPQEGYAIIMETTPPAPCYFIFVSDPAFDKGYAFDFFCLEPMSHAPDDHHRPEGGDLIALAPGESTTSEMSLRVEWL”, the “soluble on expression in E. coli” value is reported as “not soluble”.
